Assay results: the nanobody polyreactivity screen of Harvey et al. (2022)

Assay: yeast display, Sf9 membrane polyspecificity reagent, FACS + sequencing; frameworks hold sequencing errors
Outline: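 Genes from sorted yeast were amplified by colony PCR, read by MiSeq 2 × 250 sequencing and filtered on CDR length. These cells carried a synthetic nanobody library in Saccharomyces cerevisiae BJ5465 and were sorted by FACS into low and high (top ~1%) gates on anti-HA and streptavidin fluorescence. Polyreactivity is labelled according to the gate of origin.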

Row | Sequence | polyreactivity (PSR sort gate)
1 | QVQLVESGGGLVQAGGSLRLSCAASGFIIGYYAMGWYRQAPGKERELVASIRRGGSTYYADSVKGRFTISRDNAKNTVYLQMNSLKPEDTAVYYCAVPYSRFSAFRRWVKYDYWGQGTQVTVSS | high polyreactivity
2 | QVQLVESGGGLVQAGGSLRLSCAASGFIIIGYVMGWYRQAPGKERELVAAITSSGGSTYYEDSVKGRFTISRDNAKNTVYLQMNSLKPEDTAVYYCAAEYYLLWSGMEYWGQGTQVTVSS | low polyreactivity
3 | QVQLVESGGGLVQAGGSLRLSCAASGFIIIGYVMGWYRQAPGNERELVAAITSSGSGTYYADSVKGRVTISRDNAKNTVYLQMNSLKPEDTAVYYSAAQVRYGTATYHVSSYHYTRYGYWGQATQVTVSS | low polyreactivity
4 | QVQLVESGGGLVQAGGSLRLSCAASGFIIKYYAMGWYRQAPGKERELVAAISSGGRTYYADSVKGRFTISRDNAKNTVYLQMNSLKPEDTAVYYCAKTFRKSYDWGQGTQVTVSS | high polyreactivity
5 | QVQLVESGGGLVQAGGSLRLSCAASGFIINKYTMGWYRQAPGKERELVAAITWSGGTTYYADSVKGRFTISRDNAKNTVYLQMNSLKPEDTALYYCAAYYYRGRVCAYDYWGQGTQVTVSS | high polyreactivity
6 | QVQLVESGGGLVQAGGSLRLSCAASGFIIRYYTMGWSRQAPGKERELVAVITSGGTTYYADSVKGRFTISRDNAKNTVYLQMNSLKPEDTAVYYCAADYRPRLDGVGVDYWGQGTQVTVSS | low polyreactivity
7 | QVQLVESGGGLVQAGGSLRLSCAASGFIISGNAMGWYRQAPGKERELVASISRSGGSTYYADSVKGRFTISRDNAKNTVYLQMNSLKPEDTAVYYCNARYYAIGQFNYWGQGTQVTVSS | low polyreactivity
8 | QVQLVESGGGLVQAGGSLRLSCAASGFIISPYAMGWYRQAPGKERELVAAISWSGVSTYYADSVKGRFTISRDNAKNTVYLQMNSLKPEDTAVYYCATYRTVYYWGQGTQVTVSS | high polyreactivity
9 | QVQLVESGGGLVQAGGSLRLSCAASGFILAYYAMGWYRQAPGKERELVAAISIGSSTDYADSVKGRFTISRDNAKNTVYLQMNSLKPEDTAVYYCAATYVYWTWGYDYWGQGTQVTVSS | low polyreactivity
10 | QVQLVESGGGLVQAGGSLRLSCAASGFILAYYEMGWYRQAPGKERELVAAISIGSSTDYADSVKGRFTISRDNAKNTVYLQMNSLKPEDTAVYYCAARDYYYEYDYWGQGTQVTVSS | low polyreactivity
11 | QVQLVESGGGLVQAGGSLRLSCAASGFILDRYAMGWYRQAPGKERELVASITSGGSTNYADSVKGRFTISRDNAKNTVYLQMNSLIPEDTAVYYCAAYPWRYWNHEYNYWGQGTQVTVSS | high polyreactivity
12 | QVQLVESGGGLVQAGGSLRLSCAASGFILDYNAMGWYRQAPGKERELVAAITSGGSTNYADSVKGRFTISRDNAKNTVYLQMNSLKPEDTAVYYCNVRSVSPVHDDGSWGQGTQVTVSS | low polyreactivity
13 | QVQLVESGGGLVQAGGSLRLSCAASGFILDYNAMGWYRQAPGKERELVATITGRGDRTYYADSVKGRFTISRDNAKNTVYLQMNSLKPEDTAVYYCAAGFDGSRHPGFDSWGQGTQVTVSS | low polyreactivity
14 | QVQLVESGGGLVQAGGSLRLSCAASGFILDYYDMGWYRQAPGKERELVAGINYGGDSTYYADSVKGRFTISRDNAKNTVYLQMNSLKPEDTAVYYCAADLYFQYPEYDYWGQGTQVTVSS | low polyreactivity
15 | QVQLVESGGGLVQAGGSLRLSCAASGFILERYAMGWYRQAPGKERELVAAISSVGNTNYADSVKGRFTISRDNAKNTVYFQMNSLKPEDTAVYYCAAEGAFPIYDYWGQGTQVTVSS | low polyreactivity
16 | QVQLVESGGGLVQAGGSLRLSCAASGFILGSNVMGWYRQAPGKERELVAAISYSGGSTYYADSVKGRFTISRDNAKNTVYLQMNSLKPEDTAVYYCARRLTREYDYWGQGTQVTVSS | low polyreactivity
17 | QVQLVESGGGLVQAGGSLRLSCAASGFILGYYAKGWSRQAPGKERELDAITSGDSTYYADSVKGRFTISRDTAKNTVYLQMNSLKPEDTAVYYCNAEASIERRYRGIIAVITRYDYWAQGTQVTVSS | high polyreactivity
18 | QVQLVESGGGLVQAGGSLRLSCAASGFILLDYAMGWYRQAPGKERELVAAISWSGARTYYADSVKGRFTISRDNAKNTVYLQMNSLKPEDTAVYYCAAKGQRGYWWGFDYWGQGTQVTVSS | low polyreactivity
19 | QVQLVESGGGLVQAGGSLRLSCAASGFILLDYAMRWYRQAPGKERELVAAISWSGARTYYADSVKGRFTISRDNAKNTVYLQMNSLKPEDTAVYYCATRYRWTPYDYWGQGTQVTVSS | low polyreactivity
20 | QVQLVESGGGLVQAGGSLRLSCAASGFILPTYAMGWYRQAPGKEREFVAAIRTSTGATYYADSVKGRFTISRDIAKNTVYLQMTSLKPEDNAVYYFPADAPWSEWLWADIVGYEYWGQGTQVTVSS | low polyreactivity
21 | QVQLVESGGGLVQAGGSLRLSCAASGFILRSYGMAWYRKAPGKERELVAAITRGGSTYYADSVKGRFTISRDNAKNTVYLQMNSLKAEDTAVYYCAARTRYYSQQFDYWGQGTQVTVSS | high polyreactivity
22 | QVQLVESGGGLVQAGGSLRLSCAASGFILRWYAMGWYRQAPGKERELVAAISWSGGSTYYADSVKGRFTISRDNAKNTVYLQMNSLKPEDTAVYYCNAVNYRNKYDYWGQGTQVTVSS | high polyreactivity

Row | Sequence | polyreactivity (PSR sort gate)
23 | QVQLVESGGGLVQAGGSLRLSCAASGFILRYYAMGWYRQAPGKERELVAAISSGGGTYYADSVKGRFTISRDNAKNTVYLQMNSLKPEDTAVYYCAADYWGLWHWLYTDDDGDYWGQGTQVTVSS | high polyreactivity
24 | QVQLVESGGGLVQAGGSLRLSCAASGFILSGYAMGWYRQAPGKERELVAVISGGGRTYYADSVKGRFTISRDNAKNTVYLQMNSLKPEDTAVYYCARPRTRQGDYWGQGTQVTVSS | high polyreactivity
25 | QVQLVESGGGLVQAGGSLRLSCAASGFILSPNTMGWYRQAPGKERELVAAISSDVSTYADSVKGRFTISRDNAKNTVYLQMNSLKPEDTAVYYCNADDFGYASYEYWGQGTQVTVSS | low polyreactivity
26 | QVQLVESGGGLVQAGGSLRLSCAASGFILSWYAMGWYRQAPGKERELVAGISRRGGSTYYADSVTGRFTISRDNAKNTVYLQMNSLKPEDTAVYYCNALYDDWSVSTGDYWGQGTQVTVSS | high polyreactivity
27 | QVQLVESGGGLVQAGGSLRLSCAASGFILWPYAMGWYRQEPGKERELVAAITTGGSTNYADSVKGRFTISRDNAKNTVYLQMNSLKPEDTAVYYCAKGYYFGYYEFDYWGQGTQVTVSS | high polyreactivity
28 | QVQLVESGGGLVQAGGSLRLSCAASGFILYYYAMGWYRQAPGIERELVAAISWSGDSTYYADSVKGRFTISRDNAKNTVYLQMNSLKPEDTAVYYCAATGQLTHRYYWGQGTQVTVSS | low polyreactivity
29 | QVQLVESGGGLVQAGGSLRLSCAASGFIRYYAMGWYRNAHGKERELVAAITATGASTYYADSVKGRFTISRDNAKNTVYLQMNSLKPEDTAVYYCIVRLRISSGYWGQGTQVTVSS | high polyreactivity
30 | QVQLVESGGGLVQAGGSLRLSCAASGFISGKYAMGWNRQAPGKERELVATIRSGGSTNYADSVKGRFTISRDNAKNTVYLQMNSLKPEDTAVYYCAKRRGSRGVIYDYWGQGTQVTVSS | high polyreactivity
31 | QVQLVESGGGLVQAGGSLRLSCAASGFISGYYTMRWYRQAPGKERELVAVINSGGSTYYADSVKGRFTISRDNAKNTVYLQMNSLKPEDTAVYYCAKLGGKYSRYYYWGQGTQVTVSS | low polyreactivity
32 | QVQLVESGGGLVQAGGSLRLSCAASGFISNGYAMGWYRQAPGKEREFVASISSSGGSTYYADSVKGRFTISRDIAKNTVYLQMNSLKTEDTAVYYCNARYWWVIKVKLGYWGQGTQVTVSS | low polyreactivity
33 | QVQLVESGGGLVQAGGSLRLSCAASGFISSENAMGWYRQAPGKERELVAAISSGGSTNYADSVKGRFTISRDNAKNTVYLQMNSIKREDTAVYYCAATLPGWYNEDDSWGQGTQVTVSS | low polyreactivity
34 | QVQLVESGGGLVQAGGSLRLSCAASGFISYENAMGWYRQAPGKERELVAAISSGGSTNYADSVKGRFTISRDNAKNTVYFQMNSLKPEDTAVYYCAATLPGWYNEDDSWGQGTQVTVSS | low polyreactivity
35 | QVQLVESGGGLVQAGGSLRLSCAASGFISYFYTMGWYRPAPGKERELVAAISNTGDRTYYADSVKGRFTISRDNAKNTVYLQMNSLKPEDTAVYYCNAVVRGTYWQSFDYWGQGTQVTVSS | high polyreactivity
36 | QVQLVESGGGLVQAGGSLRLSCAASGFIVHTNTMGWYIQAPGKERELVAAMSSGGRTNYADSVKGRFTISRDNAKNTVYLQMNSLKPEDTAVYYCAADWHSWRWGYYYWGQGTQVTVSS | low polyreactivity
37 | QVQLVESGGGLVQAGGSLRLSCAASGFIVKRYARGWYRQAPGKERELVAAITSSGGRTYYADSVKGRFTISRDTAKNTVYLQMNSLKPEDTAVYYCAKGWSTYYTKMNYWGQGTQVTVSS | high polyreactivity
38 | QVQLVESGGGLVQAGGSLRLSCAASGFIYGFYVMGWYRQAPGKERELVAAITTSGDSTYYADSVKGRFTISRDNAKNTVFLQMNSLKPEDTAVYYCAADNVHSEYEYWGQGTQVTVSS | high polyreactivity
39 | QVQLVESGGGLVQAGGSLRLSCAASGFIYGTYAMGWYRQAPGKEREFVAAITRSGSSTYYADSVKGRFTISRDNAKNTVYLLMNSLKPEDTAVYYCAADLTRGRFRYYYWGLGTQVTVSS | high polyreactivity
40 | QVQLVESGGGLVQAGGSLRLSCAASGFIYHNAMGWYRQAPGKERELVARITWSGGSTSYADSVKGRFTISRDNAKNTVYLQMTSLKPEETAVYYCAARGVVYRYGASRGYWGQGTQVTVSS | high polyreactivity
41 | QVQLVESGGGLVQAGGSLRLSCAASGFLFGWNAMGGYRQAPGKERELVAAISARGGSTSYADSVKGRFTISRDTAKNTVYLQMNSLKPEDTAVYYCSAKSAFPLDYWGQGTQVTVSS | high polyreactivity
42 | QVQLVESGGGLVQAGGSLRLSCAASGFLFVVYTMGWYRQAPGKERELVAAITSGGSTYYADSVKGRFTISRDNAKNTVYLQMNSLKPEDTAVYYCNALASRYPAYYYWGQGTQVTVSS | low polyreactivity
43 | QVQLVESGGGLVQAGGSLRLSCAASGFNFADNAMGWYRQAPGKEREFVAAISRSGGTTYYADSVKGRFTISRDNAKNTVYLQMNSLKPEDTAVYYCATRLTSYPDYDYWGQGTQVTLSS | low polyreactivity
